How the values were obtained:
[1] = biological target: T1, 6×His-tagged NmeCas9 (Neisseria meningitidis Cas9) (Neisseria meningitidis, UniProt C9X1G5 1-1082); experiment: cell-based or functional assay
T1 sequence: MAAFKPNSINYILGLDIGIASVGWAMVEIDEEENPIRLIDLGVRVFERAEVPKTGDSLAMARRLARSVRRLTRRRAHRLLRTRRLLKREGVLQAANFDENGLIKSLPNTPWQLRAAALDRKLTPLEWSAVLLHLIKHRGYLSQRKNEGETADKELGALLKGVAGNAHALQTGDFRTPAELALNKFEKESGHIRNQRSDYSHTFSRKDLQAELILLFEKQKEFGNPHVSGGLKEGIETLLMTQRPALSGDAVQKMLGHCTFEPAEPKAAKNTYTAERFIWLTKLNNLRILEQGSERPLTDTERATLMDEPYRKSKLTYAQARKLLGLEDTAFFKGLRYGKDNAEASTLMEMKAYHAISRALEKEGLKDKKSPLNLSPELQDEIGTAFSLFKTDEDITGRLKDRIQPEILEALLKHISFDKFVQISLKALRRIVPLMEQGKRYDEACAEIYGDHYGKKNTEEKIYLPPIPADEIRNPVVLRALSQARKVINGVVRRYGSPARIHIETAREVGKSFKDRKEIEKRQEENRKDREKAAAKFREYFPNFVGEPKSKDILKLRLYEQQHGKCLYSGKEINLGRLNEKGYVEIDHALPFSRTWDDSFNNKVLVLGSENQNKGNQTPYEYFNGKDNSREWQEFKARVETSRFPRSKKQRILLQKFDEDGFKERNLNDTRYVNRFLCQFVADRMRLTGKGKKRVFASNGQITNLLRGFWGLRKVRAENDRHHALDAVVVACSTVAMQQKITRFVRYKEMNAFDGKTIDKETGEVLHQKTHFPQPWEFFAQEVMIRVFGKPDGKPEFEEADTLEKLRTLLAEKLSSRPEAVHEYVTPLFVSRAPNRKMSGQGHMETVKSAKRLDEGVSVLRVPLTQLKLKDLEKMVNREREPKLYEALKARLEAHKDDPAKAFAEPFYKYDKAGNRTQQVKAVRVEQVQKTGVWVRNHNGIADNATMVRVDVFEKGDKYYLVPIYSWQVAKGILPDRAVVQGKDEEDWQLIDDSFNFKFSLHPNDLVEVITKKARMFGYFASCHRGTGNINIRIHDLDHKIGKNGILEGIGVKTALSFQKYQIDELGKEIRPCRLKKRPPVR

[2] = biological target: T2, 6×His-MBP-tagged AnaCas9 (Cas9 from Actinomyces naeslundii) (Actinomyces naeslundii, UniProt J3F2B0 1-1101); experiment: nickel affinity pulldown with tagged AnaCas9, SDS-PAGE/Coomassie
T2 construct: not shown: 6×His-MBP tag
T2 sequence: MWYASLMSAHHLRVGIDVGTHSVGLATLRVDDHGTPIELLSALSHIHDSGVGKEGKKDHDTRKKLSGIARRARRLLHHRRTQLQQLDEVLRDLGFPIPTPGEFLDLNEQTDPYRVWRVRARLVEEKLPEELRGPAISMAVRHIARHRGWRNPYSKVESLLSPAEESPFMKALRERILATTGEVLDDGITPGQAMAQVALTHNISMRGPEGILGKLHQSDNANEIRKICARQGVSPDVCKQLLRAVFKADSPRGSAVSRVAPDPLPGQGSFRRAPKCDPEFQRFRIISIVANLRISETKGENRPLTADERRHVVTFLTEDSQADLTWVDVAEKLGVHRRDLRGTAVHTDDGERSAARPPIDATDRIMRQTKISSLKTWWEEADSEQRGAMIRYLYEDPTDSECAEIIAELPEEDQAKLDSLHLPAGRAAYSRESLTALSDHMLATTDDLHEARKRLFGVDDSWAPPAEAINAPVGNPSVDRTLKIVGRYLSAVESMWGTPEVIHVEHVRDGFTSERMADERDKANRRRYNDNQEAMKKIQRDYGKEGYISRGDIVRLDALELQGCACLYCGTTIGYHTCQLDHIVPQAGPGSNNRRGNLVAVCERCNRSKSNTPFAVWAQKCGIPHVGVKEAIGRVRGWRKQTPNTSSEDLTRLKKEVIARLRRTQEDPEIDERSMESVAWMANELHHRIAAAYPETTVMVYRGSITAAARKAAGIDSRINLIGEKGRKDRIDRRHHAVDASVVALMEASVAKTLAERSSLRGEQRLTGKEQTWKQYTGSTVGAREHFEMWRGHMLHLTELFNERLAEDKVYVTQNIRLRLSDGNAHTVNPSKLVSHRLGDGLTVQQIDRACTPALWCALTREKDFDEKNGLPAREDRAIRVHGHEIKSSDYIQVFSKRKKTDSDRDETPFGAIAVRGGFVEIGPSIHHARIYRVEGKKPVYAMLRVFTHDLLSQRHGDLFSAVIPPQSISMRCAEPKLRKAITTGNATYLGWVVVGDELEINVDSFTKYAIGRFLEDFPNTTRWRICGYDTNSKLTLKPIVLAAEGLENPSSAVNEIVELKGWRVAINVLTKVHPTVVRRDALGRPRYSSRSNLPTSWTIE

[3] = biological target: T1, 6×His-tagged NmeCas9 (Neisseria …); experiment: nickel affinity pulldown with 6×His-NmeCas9:sgRNA, SDS-PAGE/Coomassie

B1: AcrIIC1Nme (Neisseria meningitidis Acr #1) (other)
chain: MANKTYKIGKNAGYDGCGLCLAAISENEAIKVKYLRDICPDYDGDDKAEDWLRWGTDSRVKAAALEMEQYAYTSVGMASCWEFVEL
notes: also called Acr1Nm
[1]
  inhibition of in vitro DNA cleavage by NmeCas9, anti-CRISPR at 1:1 molar ratio: ~50%
[2]
  binding result: no binding

B2: FLAG-AcrIIC3Nme (AcrIIC3Nme with an N-terminal FLAG tag) (other)
chain: DYKDDDDKMAFKRAIIFTSFNGFEKVSRTEKRRLAKIINARVSIIDEYLRAKDTNASLDGQYRAFLFNDESPAMTEFLAKLKAFAESCTGISIDAWEIEESEYVRLPVERRDFLAAANGKEIFKI
notes: also called 6xHis-TEV-FLAG-AcrIIC3Nme (before TEV cleavage)
[1]
  inhibition of in vitro DNA cleavage by NmeCas9, anti-CRISPR at 1:1 molar ratio: ~50%
[2]
  binding result: no binding

B3: AcrE2 (type I-E anti-CRISPR from Pseudomonas phage JBD88a) (other)
chain: MANTYLIDPRKNNDNSGERFTVDAVDITAAAKSAAQQILGEEFEGLVYRETGESNGSGMFQAYHHLHGTNRTETTVGYPFHVMEL
notes: also called Acr88a-32; Acr88-32
[3]
  binding result: no binding

Reference: US20230167426A1 (UNIVERSITY OF MASSACHUSETTS, published 2023)
